{"source": "the DeepSol protein solubility set"}
{"assay": "soluble on expression in E. coli; label from the status in PepcDB or PDB records"}
{"sequence": "GMNSDIIVADFWKNNEEILTDFDKDSFCESWTENEMWSIEFKVAQTPKNAHCYSFLDYESSVYFRGQEFVVKQLSHDAVGKTLSKDIRAPHIYYTCQDGRQDDAITGSFTLEQCLTHIFKTDNRGFSWEIIDPSNILEKVQQENFGNNNYLTLIDQLLDDYGVVVIPDNRHLVFKPREIYGAKTENFIRYKYNTDEASFDIDTLSLKTKIKGYGKVDSNGNNYFSPITYTSPEVEKWGIRWQEPVSDERYTVAGNMQRRLKLELQDYPATTGSVILKNDYECEKGDYVLFIYEPLGIDYDVQIVAYKKYPFTIKAPEITLSNNKKSIVSIMAQLAKVLKGAK", "soluble on expression in E. coli": "soluble"}
{"sequence": "RAIPIKQSFLLKRSGNSLNKEWKKKYVTLSSNGFLLYHPSINDYIHSTHGKEMDLLRTTVKVPGKRPPRAISAFGPSASGSAGQAEEENFEFLIVSSTGQTWHFEAASFEERDAWVQAIESQILASLQ", "soluble on expression in E. coli": "soluble"}
{"sequence": "MGSDKIHHHHHHMILLVGGEKGGAGKSCLAQNIAVHITQKFNANVLMVDCDPQRTTSDWIQARNEDASLPAINCIQLYGKIRNDLLGLDQRFDYVIVDCGGQDNLAMRAAMSVATYVVLPLRPKRRDLKTLPHMEDMLSTCKMVNPKMVATVVMTQCPALPSQYKRILEAKEVVESFGLRVLDAVTFSRNVYDDSEEQGSSVIEIEPDGKAAAEIRAIADELFAIPPENSYELN", "soluble on expression in E. coli": "not soluble"}
{"sequence": "MTSALATGLATITADGTVLDAWFPAPELTAVDTTGTTVLDGDDIPEHLRLLVGEDADRGVRRQAITTTIADLDAAPIDAYDAYLRLHLLSHRLVKPHGQNLDGIFGLLTNVVWTNHGPCEVKNFDITRAKLQARGPVTVYLVDKFPRMVDYVLPSGVRIGDADRVRLGAHLAEGTTVMHEGFVNFNAGTLGNSMVEGRISAGVVVDDGSDVGGGASIMGTLSGGGKQVISLGKRCLLGANSGCGIPLGDDCVIEAGLYVTAGSKIIVRGAVAEATGLNDGDTTKALELAGANNILFRRNSISGAIEATAWKSQAVELNDALHAN", "soluble on expression in E. coli": "soluble"}
{"sequence": "MGSDKIHHHHHHMSDLKSLATKFASDHESGKLLVLPTVWDTWSAGLVEEAGFSGLTIGSHPVADATGSSDGENMNFADYMAVVKKITSAVSIPVSVDVESGYGLSPADLIAQILEAGAVGINVEDVVHSEGKRVREAQEHADYIAAARQAADVAGVDVVINGRTDAVKLGADVFEDPMVEAIKRIKLMEQAGARSVYPVGLSTAEQVERLVDAVSVPVNITAHPVDGHGAGDLATLAGLGVRRVTFGPLWQKWLAATSAQQLKGWA", "soluble on expression in E. coli": "not soluble"}
{"sequence": "MDLMAYWLCITNEDNWKVIKEKKIWGVAERYKNTINKVKVGDKLIIYEIQRSGKDYKPPYIRGVYEVVSEVYKDSSKIFKPTPRNPNEKFPYRVKLKEIKVFEPPINFKELIPKLKFITNKKRWSGHLMGKAMREIPEEDYKLIVGN", "soluble on expression in E. coli": "soluble"}
{"sequence": "MSLKKIEKIIEKEIHKNKLLQALMKKNQKTDKKTVFELVKQFNQKLNLTTILKTIRTKRSTYYYWLKAENKIKAKKEKYLLQQNRIKALCLHQQYFYGHRKITDLYQKTFNEFITKKKVYTIMKKNDINCRLRIKKNKYNYKNNLKTKLKVVDNLINQDFISIAPLQKLFTDITYFKIPQGFLYFSCIIDSFNNQIIASHTSKHQNKELVLNTIQKLPLLKEPCIIHSDQGTVYQSQKVQQTLTKKGFLISMSRKATPRDNAVIENFFGQMKTILQHQHPFLFQKSTKKLKKIINHFPKFWNNQWILAKLNYSSPSQYSQNLIEGHHHHHH", "soluble on expression in E. coli": "not soluble"}
{"sequence": "MAHHHHHHMAVNARHDLLYECLGLVYELYGGLAEDLQELHDDPLHPHFHRRIARIKRDRERIATELDKRYAKLHPTVKTVYDAFLVRRYYHLADWIEHVERKRERLINDLSPDVMEKTMRMRGIAEQYLRHLRALEHALYEDPLMGLLGGDRGTNVLDQYTPGELAMLRQKAAYFRNMRRFGANQLDADMHTH", "soluble on expression in E. coli": "not soluble"}
{"sequence": "MIKSLKQLAIQAGLEYLGEDVSIQTVAINSNEVRQDCLFVAIVANRDGHEFIPSAIANGAKAILVSKKQGLDIPQVVCGNTIKGLRALAKEYRKSLTMPIISLTGSCGKTSVKEMIVTLLGERKVHFTQGNLNNYLGVPMTILETPHDVDFAVIEAGTNVGGEIKAAADIIQPNIAMITNVGACHLENLKTLDGVMIEKGELLKALPRDGFCIVNLDDERIPNYAKLLECKKISCSMTNPKADILVLDYRATSNSYAFKIRIFSQEYDYQLPNIGKHNLFNSVLAIASVVAVGLEPKDFLQNTQNIKNYKGRFSTEKLSDKLTLIDDTYNASAGAVQAAIEDLAEFDGKKILAISSMRELGDEAENYHRKMGQWLKKANLDKIFLFGEKNLIDYVLAEYSNQNAKYYESKDELNNDLAKILDEYKSQSTKLTVKGARSFKMEEVVKFVKENL", "soluble on expression in E. coli": "not soluble"}
{"sequence": "MGSDKIHHHHHHMMERLIIDDSRFNFVPKVKTAYKAPPGLDEKLIMEISRAKDEPEWMLKHRLESLKVFNEWHNPRFGVDISGLDLGKIVSYIKPDAKKSTSWEEVPEEVKEAFDKLGIPEAERKYLAGVGAQLDSEIVYQNMKKELEKMGVIFLDMESAVREYPDLVKKYFMKLVPITDHKFAALHGAIWSGGTFLYVPAGVKIPMPLQAYFLMSNPGMGQFEHTIIVAEEGSEVTFIEGCSAPRYNIINLHAGMVEIYVKKGAKVKYLTIQNWSKNTYNLNTKRSIVDEEGSMTWVSGSLGSQKTMLYPMTILKGKGARAESMSITYAGPGQHMDTGSKVVHLAPYTSSIVSAKSISLGGGWAFYRGLLKITKEAVKSKASVECAALMLDNRSKSDTVPIIEVETDRADVGHEARIGRIGEDQIFYLMSRGLSEQEAKAMIVKGFVEPVVKELPFEYAVELNKLLELEIEKSIG", "soluble on expression in E. coli": "not soluble"}
{"sequence": "MGSDKIHHHHHHMAKVAHKKLLLSELQPGMRVKLPLSWTNHPFLFNRVDINSAAQIEMIRGLGVPFVYLISGSSDDAEAVDEEEEIEEIDEMPPERDLKADTRKSMRLSQKRFLESVNQCRNVFGKIVSDPEGAYRLSAALVEDLLSHLQEVQKPFLTLVGMDEKDVSVTQHGVSVAVLAMMIGHALDLPARELRDIALGSLFHDIGKLKVPDVIRRKRSALTPHEANYLQMHPNFGYDMLNRSGLFPKEVLNIVLHHHEFVDGSGFPDGLTGHKIPMVTQIVSLANDYDQQLSGQQATSPQVALGYLFKNRASKHSESLISVLVKILGIYPPGTIVKLSDDNVAKVIMTTKEVSQPQVWACKEDGSEASLRFLSDEGVTVQKSLRVEDLTEGAKRTLQVDKGISFYFSSLQA", "soluble on expression in E. coli": "not soluble"}
{"sequence": "MAVAGFSPIKLIWKNSRHDLVLAGQAGLSYKNNNYLYMDVDNKHAMARTYANGKFSLGARMAYEYRISNTLGAGATATYEFGGEVFAALATFNVHF", "soluble on expression in E. coli": "not soluble"}
{"sequence": "AKQQKHFVLVHGGCLGAWIWYKLKPLLESAGHKVTAVDLSAAGINPRRLDEIHTFRDYSEPLMEVMASIPPDEKVVLLGHSFGGMSLGLAMETYPEKISVAVFMSAMMPDPNHSLTYPFEKYNEKCPADMMLDSQFSTYGNPENPGMSMILGPQFMALKMFQNCSVEDLELAKMLTRPGSLFFQDLAKAKKFSTERYGSVKRAYIFCNEDKSFPVEFQKWFVESVGADKVKEIKEADAMGMLSQPREVCKCLLDISDS", "soluble on expression in E. coli": "soluble"}
{"sequence": "MSQQKICFIGAGNMTRSIISGLIRSGYPASQVQATNPSQGKLDALATDFGVRVSQDNVSAAQDADVIILSVKPQLMEQVCQALQGIDMSNKLLITIAAGIKASRYSEYLAQPITLIRTMPNTPMQIGVGMTGLYAPQSLSDAQKAIAERLMSSGGEIVWVNEESDINQVIALAGSSPAYFFLLMESMIDAGKQMGMDEAKARSLVQQAALGAAMMAKQNPELTLGNLRENVTSKGGTTAQAIATFEAADLRGVVKKAMENCINRAEEMAKTF", "soluble on expression in E. coli": "soluble"}
{"sequence": "MRKIWGILFLCLTFMLVGCGKEEKPQEAFDTYAKAWNKQKFAEMYDQLSEKAKKDISKKEFTEKYEKIYSGIEVKNLKVEAGEVKEDKKDEGPIPFKVSMDTVGGKINFGHEAKMVKEKDGDKESWKVDWTPDFIFPGMTKDSKVRMQTTEPKRGEIYDRNGKGLATNGKASEIGLIPEKLGDTAPQTKETVAKLLNMSVEEIDQKLAAKWVKPGYLVPIGILPEGATQNTYIDLPGVSTKPVNVRTYPLGEAAAHLTGYIGKVNAEDLKTLQKKGYQADDPVGKAGLEQVLEEKLRGKKGGRVFVEDAQGKEIKNLAKTDAVDGENVTLTIDSAVQEKTYNEMKGEAGSSAAINPKSGETLALVSSPAYDPNIIARGTSKAQREAWNNDPKKPMTNRFTQLSVPGSVFKPITAAIGLETKTIDPKEELKIEGLKWTKDSSWGNYYVTRVKDANPIDFDKAMKYSDNIYFAQEALKIGKDKFMSEAKKFGFDEKLPIEYGFPASKIANDGIKNDIQMADTGYGQGQVLMTPLHLALTYAPIVNDGNIPSPYIIKTDKQPKVWKENVISKGNQDILKTAMTKVINDPDGTGKIAKIDGMTLAGKTGTAELKVSKEAEGKELGWFAAFDLNSPDMVITMMIEDVKGRGGSNIPAEKVKHVFQK", "soluble on expression in E. coli": "not soluble"}
{"sequence": "MEKKKVVLAYSGGLDTSVAIKWLQEKNYDIIALCLDLGEGKDLAFVKEKALSVGAIKSYMIDVQEEFANEYALMAMQAHTLYEGKYPLVSALSRPLIAKKLVEIAEQEGATAVAHGCTGKGNDQVRFEVSIQALNPYLEVIAPVREWKWSREEEIAYAKENNVPIPINLDSPFSIDQNLWGRSNECGILEDPWAAPPEDAYEMTLALEDTPNKPEFVEIGFEAGVPTTLNGTAYPLSELIKTLNALAGKHGVGRIDHVENRLVGIKSREVYECPAAMTLITAHKELEDLTLVKEVAHFKPMIEQKITELIYNGLWFSPLKQALHAFLQETQKNVTGTVRVKLFKGHAIVEGRKSEYSLYDEKLATYTAQDEFNHDAAVGFISLFGLPTKVYSQVNQKKVEA", "soluble on expression in E. coli": "not soluble"}
{"sequence": "MGSDKIHHHHHHMLNQSNELNAWDRDHFFHPSTHMGTHARGESPTRIMAGGEGVTVWDNNGRKSIDAFAGLYCVNVGYGRQKIADAIATQAKNLAYYHAYVGHGTEASITLAKMIIDRAPKGMSRVYFGLSGSDANETNIKLIWYYNNVLGRPEKKKIISRWRGYHGSGVMTGSLTGLDLFHNAFDLPRAPVLHTEAPYYFRRTDRSMSEEQFSQHCADKLEEMILAEGPETIAAFIGEPILGTGGIVPPPAGYWEKIQAVLKKYDVLLVADEVVTGFGRLGTMFGSDHYGIKPDLITIAKGLTSAYAPLSGVIVADRVWQVLVQGSDKLGSLGHGWTYSAHPICVAAGVANLELIDEMDLVTNAGETGAYFRAELAKAVGGHKNVGEVRGDGMLAAVEFVADKDDRVFFDASQKIGPQVATALAASGVIGRAMPQGDILGFAPPLCLTREQADIVVSKTADAVKSVFANL", "soluble on expression in E. coli": "not soluble"}
{"sequence": "MTEQTILMGNLNEVAKKAAQWLINRKPIKSIIDWGISFSLWPPHFTTSCCGTEFGAFAAARFDAERYGMLPFSSARQSNILILEGTLSRKMGRAARIVYDQMPEPKYVIALGACILEGGIFWNSYNTVLPSDIGIPVDLYVPGCPIRPEAVARAVLMLQKKIRTQGALKT", "soluble on expression in E. coli": "not soluble"}
{"sequence": "MSKKKGLSAEEKRTRMMEIFSETKDVFQLKDLEKIAPKEKGITAMSVKEVLQSLVDDGMVDCERIGTSNYYWAFPSKALHARKHKLEVLESQLSEGSQKHASLQKSIEKAKIGRCETEERTRLAKELSSLRDQREQLKAEVEKYKDCDPQVVEEIRQANKVAKEAANRWTDNIFAIKSWAKRKFGFEENKIDRTFGIPEDFDYID", "soluble on expression in E. coli": "soluble"}
